Test results reported in patent US4746508A, “Drug administration” (Beth Israel Hospital Assn., priority 1984, dated 1988).
Each block holds one compound with its values, some of them ahead of it.

Assays:
[1] = HPLC k' factor value (hydrophobicity) of unconjugated steroid; assay type: physicochemical; settings: octadecylsilane column, 75% methanol in water, apparent pH 5.0
Description: Preferably the steroid used in the invention is characterized in that the unconjugated derivative of the steroid is retained on a hydrophobic column for a length of time sufficient to produce a k' factor value of at least about 4, the k' factor value being obtained by subjecting a monomeric solution of 1 mg/ml of such steroid derivative to high-performance liquid column chromatography at 3,000 psi, using a 250×4.6 mm column having octadecylsilane-coated 5 μm silica particles as the stationary phase and a mobile phase, delivered at 1.0 ml/min., consisting of 75% methanol in ater, v/v, buffered with 0.005M KH2 PO4 /H3 PO4 to give an apparent pH value, as measured using a glass electrode, of 5.0, the k' factor value being defined by [formula] where t0 is the retention time in the column of the solvent front and tr is the retention time in the column of the steroid derivative as measured by obtaining the elution profile of the steroid derivative by absorbance at 210 nm.
The structure of the steroid molecule affects its chemical properties and thus its functioning as a drug transporting molecule. We believe that all of the steroid molecules used in the invention facilitate transport by self-associating to form reversed micelles within the membrane across which the drug is being transported; these reversed micelles, it is believed, function as pores, allowing the drug to pass through. A measure of a given steroid molecule's ability to form such reversed micelles is the hydrophobicity of the unconjugated form of the molecule, a property which can be quantified using the k' factor value, which is computed by observing the steroid's retention time in a high-performance liquid chromatography (HPLC) column under the conditions described above. As mentioned above, the k' value of the unconjugated derivative of the steroid should be at least about 4 for the steroid to be suitable in the therapeutic compositions of the invention.
The k' and CMT of the steroids used in the compositions of the invention are influenced by whether the steroid is conjugated at C21 and, if so, by the nature of the conjugating group. Additionally, a polar group at position 16 is essential for solubility (See position E on formula 1). Because the k' factor value is influenced by the polarity of any conjugating group, unconjugated derivatives must be used in numerical comparisons involving steroids which are conjugated with different groups, or comparisons involving both conjugated and unconjugated steroids. Overall hydrophobicity and k' factor value generally decrease as the polarity of the conjugating group increases. However, such decrease is not a reflection of the hydrophobicity of the steroid nucleus. […]

[2] = in vivo
Description: Corticotropin releasing-factor (CRF, a hormone of MW 4,000) (Dr. George Chrousos, National Institute of Health, Bethesda, MD) was dissolved in 0.15 NaCl and mixed with the 2% solution of sodium tauro-24,25-dihydrofusidate. CRF was also prepared without adjuvant. Two sheep were administered 350 mg ketamine intravenously and a total of 460 μg of CRF as a liquid, by drops into each side of the nose of the sheep at time 0. The dose of CRF was approximately 10 μg/kg body weight.

[3] = Intranasal administration of proinsulin to sheep (insulin RIA adjusted for cross-reactivity); assay type: in vivo; settings: for Proinsulin (μU/ml above baseline): Sheep 196 Study 25, 1.5 mg into each nostril
Description: Commercially available proinsulin (Eli Lilly & Co., Indianapolis, Ind.) was mixed with the sodium tauro-24,25-dihydrofusidate solution or in 0.15M NaCl, pH 7.6 to give a final concentration of 6 mg/ml of proinsulin and 1% (w/v) sodium tauro-24,25-dihydrofusidate. Sheep were administered by nasal drops 1.5 mg (250 μl) of the solution into each nostril at time 0. Sheep 25 was administered proinsulin without adjuvant as described above.

k' factor value [1]: 9.5
Compound: CC(=O)O[C@@H]1[C@H]2[C@H](C)[C@H](O)CC[C@]2(C)[C@@H]2CC[C@H]3/C(=C(\CCC=C(C)C)C(=O)O)[C@@H](OC(C)=O)C[C@]3(C)[C@@]2(C)[C@H]1O [cephalosporin P1]

k' factor value [1]: 20.7
Compound: CC(=O)O[C@H]1C[C@@]2(C)[C@@H](C[C@@H](O)[C@H]3[C@@]4(C)CC[C@@H](O)[C@@H](C)[C@@H]4CC[C@@]32C)/C1=C(\CCC=C(C)C)C(=O)O [fusidic acid, reference compound]

The remaining lines, values behind:

Compound: CC(=O)OC1CC2(C)C(CC(O)C3C4(C)CCC(OC(C)=O)C(C)C4CCC32C)C1=C(CCC=C(C)C)C(=O)O (stereo not drawn) [3-acetoxyl-fusidic acid]
k' factor value [1]: 26.4

Compound: CC(=O)O[C@H]1C[C@@]2(C)[C@@H](C[C@@H](O)[C@H]3[C@@]4(C)CC[C@@H](O)[C@@H](C)[C@@H]4CC[C@@]32C)/C1=C(\CCCC(C)C)C(=O)O [24,25-dihydrofusidic acid]
k' factor value [1]: 27.1

Compound: Corticotropin releasing-factor without tauro-24,25-dihydrofusidate: corticotropin releasing-factor, a hormone of MW 4,000, prepared without adjuvant
increase of CRF level [2]: increased only slightly

Compound: Proinsulin without sodium tauro-24,25-dihydrofusidate: commercially available proinsulin (Eli Lilly) in 0.15M NaCl, pH 7.6, without adjuvant
Proinsulin (μU/ml above baseline) ([3]; 0 min): 0 μU/ml
Proinsulin (μU/ml above baseline) ([3]; 10 min): 2.8 μU/ml
Proinsulin (μU/ml above baseline) ([3]; 15 min): 28 μU/ml
Proinsulin (μU/ml above baseline) ([3]; 20 min): 56 μU/ml
Proinsulin (μU/ml above baseline) ([3]; 30 min): 22 μU/ml
Proinsulin (μU/ml above baseline) ([3]; 60 min): 0 μU/ml
Proinsulin (μU/ml above baseline) ([3]; 90 min): 0 μU/ml
Proinsulin (μU/ml above baseline) ([3]; 120 min): 0 μU/ml
Proinsulin (μU/ml above baseline) ([3]; 180 min): 0 μU/ml
Proinsulin (μU/ml above baseline) ([3]; 240 min): 2.8 μU/ml
Proinsulin (μU/ml above baseline) ([3]; +5 min): 0 μU/ml
Proinsulin (μU/ml above baseline) ([3]; -15 min): 0 μU/ml
absorption of nasally administered proinsulin ([3]; sheep, nasal drops): absorbed at a slower rate and to a much reduced extent
